# Substitutions are numbered along the chain they refer to.
# T1: trimeric murine IL-2 receptor (IL-2Rα, IL-2Rβ, and IL-2Rγ) on CTLL-2 cells (murine, UniProt P01590 22-268; P16297 27-539; P34902 23-369)
# T1 sequence (looked up) 1: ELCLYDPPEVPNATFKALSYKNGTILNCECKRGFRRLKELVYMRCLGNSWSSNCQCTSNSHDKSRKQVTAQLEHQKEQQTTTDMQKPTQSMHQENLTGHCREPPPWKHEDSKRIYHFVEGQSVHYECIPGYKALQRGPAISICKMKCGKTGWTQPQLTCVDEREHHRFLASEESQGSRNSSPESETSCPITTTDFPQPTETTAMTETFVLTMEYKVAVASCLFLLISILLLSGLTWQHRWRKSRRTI
# T1 sequence (looked up) 2: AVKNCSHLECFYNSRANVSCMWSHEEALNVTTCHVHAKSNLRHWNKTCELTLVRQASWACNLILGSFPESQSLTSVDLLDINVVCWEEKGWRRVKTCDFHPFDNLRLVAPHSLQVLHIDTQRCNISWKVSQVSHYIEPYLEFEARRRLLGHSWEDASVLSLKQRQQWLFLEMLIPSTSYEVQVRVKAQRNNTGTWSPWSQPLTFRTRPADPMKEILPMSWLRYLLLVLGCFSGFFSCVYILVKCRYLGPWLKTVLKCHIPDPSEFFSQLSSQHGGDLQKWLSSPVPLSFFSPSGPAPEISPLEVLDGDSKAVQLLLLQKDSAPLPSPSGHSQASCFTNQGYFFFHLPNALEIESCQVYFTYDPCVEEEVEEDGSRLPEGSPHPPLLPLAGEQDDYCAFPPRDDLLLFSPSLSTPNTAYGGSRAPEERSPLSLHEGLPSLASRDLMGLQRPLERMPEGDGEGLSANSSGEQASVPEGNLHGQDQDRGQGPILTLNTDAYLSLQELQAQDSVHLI
# T1 sequence (looked up) 3: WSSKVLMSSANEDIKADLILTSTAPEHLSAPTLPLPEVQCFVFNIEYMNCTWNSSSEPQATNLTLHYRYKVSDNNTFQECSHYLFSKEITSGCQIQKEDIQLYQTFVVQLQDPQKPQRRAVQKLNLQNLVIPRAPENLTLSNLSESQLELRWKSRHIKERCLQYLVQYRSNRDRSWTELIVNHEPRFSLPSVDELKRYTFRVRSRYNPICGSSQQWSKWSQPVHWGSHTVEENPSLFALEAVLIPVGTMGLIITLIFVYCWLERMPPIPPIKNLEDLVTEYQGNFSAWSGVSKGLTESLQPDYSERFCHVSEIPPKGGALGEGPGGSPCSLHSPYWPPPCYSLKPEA
# T2: human IL-2Rα on Treg cells (CD3+, CD4+, CD25hi, FoxP3+) of human PBMC (human, UniProt P01589 22-272)
# T2 sequence (looked up): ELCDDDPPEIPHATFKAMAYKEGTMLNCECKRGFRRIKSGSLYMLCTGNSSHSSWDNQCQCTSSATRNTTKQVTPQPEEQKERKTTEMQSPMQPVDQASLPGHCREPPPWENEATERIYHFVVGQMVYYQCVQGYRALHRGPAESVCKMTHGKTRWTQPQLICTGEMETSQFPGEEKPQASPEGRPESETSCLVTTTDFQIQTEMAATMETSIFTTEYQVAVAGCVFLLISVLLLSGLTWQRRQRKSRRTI
# T3: IL-2Rα (recombinant IL-2 receptor α, R&D Systems Cat #: 223-2A/CF), biotinylated (human, UniProt P01589 22-213, limits assumed, biotinylated using sulfo-NHS-LC-LC-Biotin)
# T3 construct: Bought reagent; also used here as the IL-2Rα partner of the in-silico analysis of PDB 2B5I (another construct); also called IL-2RA; CD25
# T3 sequence (looked up): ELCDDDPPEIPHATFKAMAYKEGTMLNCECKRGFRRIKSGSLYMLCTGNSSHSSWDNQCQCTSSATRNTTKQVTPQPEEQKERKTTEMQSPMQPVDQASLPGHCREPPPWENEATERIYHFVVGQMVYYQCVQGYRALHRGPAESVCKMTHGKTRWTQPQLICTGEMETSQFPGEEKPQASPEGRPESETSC
# T4: IL-2Rβ (recombinant IL-2 receptor β, R&D Systems Cat #:224-2B-025/CF), biotinylated (UniProt P14784 27-239, limits assumed, biotinylated using sulfo-NHS-LC-LC-Biotin)
# T4 construct: Bought reagent; also called IL-2RB; CD122
# T4 sequence (looked up): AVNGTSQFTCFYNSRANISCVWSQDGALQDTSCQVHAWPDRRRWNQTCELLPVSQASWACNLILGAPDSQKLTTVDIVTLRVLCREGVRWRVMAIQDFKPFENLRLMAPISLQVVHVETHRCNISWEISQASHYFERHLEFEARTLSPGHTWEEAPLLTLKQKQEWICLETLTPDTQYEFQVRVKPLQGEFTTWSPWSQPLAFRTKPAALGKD
# B1: Fc-IL-2v heterodimer 81.46 (hIL-2v_Δ1-5_R38G_C125S) (Fc fusion)
# chain 1: ESKYGPPCPPCPAPEAAGGPSVFLFPPKPKDTLMISRTPEVTCVVVDVSQEDPEVQFNWYVDGVEVHNAKTKPREEQFNSTYRVVSVLTVLHQDWLNGKEYKCKVSNKGLPSSIEKTISKAKGQPREPQVYTLPPSQEEMTKNQVSLWCLVKGFYPSDIAVEWESNGQPENNYKTTPPVLDSDGSFFLYSRLTVDKSRWQEGNVFSCSVMHEALHNHYTQKSLSLSLGGGGGSGGGGSGGGGSGGGGSSTKKTQLQLEHLLLDLQMILNGINNYKNPKLTGMLTFKFYMPKKATELKHLQCLEEELKPLEEVLNLAQSKNFHLRPRDLISNINVIVLELKGSETTFMCEYADETATIVEFLNRWITFSQSIISTLT
# chain 2: ESKYGPPCPPCPAPEAAGGPSVFLFPPKPKDTLMISRTPEVTCVVVDVSQEDPEVQFNWYVDGVEVHNAKTKPREEQFNSTYRVVSVLTVLHQDWLNGKEYKCKVSNKGLPSSIEKTISKAKGQPREPQVYTLPPSQEEMTKNQVSLSCAVKGFYPSDIAVEWESNGQPENNYKTTPPVLDSDGSFFLVSRLTVDKSRWQEGNVFSCSVMHEALHNRFTQKSLSLSLGK
# notes: hIgG4 knob-in-hole Fc heterodimer, one IL-2v on the knob chain
# B2: Fc-IL-2v heterodimer 89.46 (hIL-2v_Δ1-5_E61A_C125S) (Fc fusion)
# chain 1: B1 chain 1 with G281R, E304A
# chain 2: B1 chain 2
# notes: as for B1
# B3: Fc-IL-2v heterodimer 83.46 (hIL-2v_Δ1-5_T41G_C125S) (Fc fusion)
# chain 1: B1 chain 1 with G281R, T284G
# chain 2: B1 chain 2
# notes: as for B1
# B4: Fc-IL-2v heterodimer 90.46 (hIL-2v_Δ1-5_E62A_C125S) (Fc fusion)
# chain 1: B1 chain 1 with G281R, E305A
# chain 2: B1 chain 2
# notes: as for B1
# B5: Fc-IL-2v heterodimer 86.46 (hIL-2v_Δ1-5_F42A_C125S) (Fc fusion)
# chain 1: B1 chain 1 with G281R, F285A
# chain 2: B1 chain 2
# notes: as for B1
# B6: Fc-IL-2v heterodimer 87.46 (hIL-2v_Δ1-5_Y45G_C125S) (Fc fusion)
# chain 1: B1 chain 1 with G281R, Y288G
# chain 2: B1 chain 2
# notes: as for B1
# B7: mouse surrogate Fc-IL-2v heterodimer 169.250 (IL2v_F56A_Y59G_E76A_C140A) (Fc fusion)
# chain 1: GPTIKPCPPCKCPAPNAAGGPSVFIFPPKIKDVLMISLSPIVTCVVVDVSEDDPDVQISWFVNNVEVHTAQTQTHREDYNSTLRVVSALPIQHQDWMSGKEFKCKVNNKDLGAPIERTISKPKGSVRAPQVYVLPPPEEEMTKKQVTLWCMVTDFMPEDIYVEWTNNGKTELNYKNTEPVLDSDGSYFMYSKLRVEKKNWVERNSYSCSVVHEGLHNHHTTKSFSRTPGGGGGSGGGGSGGGGSGGGGSQQQHLEQLLMDLQELLSRMENYRNLKLPRMLTAKFGLPKQATELKDLQCLEDALGPLRHVLDLTQSKSFQLEDAENFISNIRVTVVKLKGSDNTFECQFDDESATVVDFLRRWIAFAQSIISTSPQ
# chain 2: GPTIKPCPPCKCPAPNAAGGPSVFIFPPKIKDVLMISLSPIVTCVVVDVSEDDPDVQISWFVNNVEVHTAQTQTHREDYNSTLRVVSALPIQHQDWMSGKEFKCKVNNKDLGAPIERTISKPKGSVRAPQVYVLPPPEEEMTKKQVTLSCAVTDFMPEDIYVEWTNNGKTELNYKNTEPVLDSDGSYFMVSKLRVEKKNWVERNSYSCSVVHEGLHNHHTTKSFSRTPGK
# B8: mouse surrogate Fc-IL-2v heterodimer 170.250 (IL2v_R52G_E76A_C140A) (Fc fusion)
# chain 1: B7 chain 1 with R278G, A282F, G285Y
# chain 2: B7 chain 2
# Target: T1, trimeric murine IL-2 receptor (IL-2Rα, …)
# Assay: cell-based or functional assay
row,"STAT5 activation of CTLL-2 cells, EC50",Binder
1,0.02 nM,B1
2,0.02 nM,B2
3,0.04 nM,B3
4,2 nM,B4
5,1 nM,B5
6,0.2 nM,B6

# Target: T2, human IL-2Rα on Treg cells (CD3+, CD4+, …)
# Assay: cell-based or functional assay
row,"Treg EC50, STAT5 activation (PBMC STAT5 assay)",Binder
1,0.07 nM,B1
2,0.04 nM,B2
3,< 0.001 nM,B3
4,0.08 nM,B4
5,0.3 nM,B5
6,0.03 nM,B6

# Target: T1, trimeric murine IL-2 receptor (IL-2Rα, …)
# Assay: cell-based or functional assay
# Remark: another data set of the same source
row,"pSTAT5 EC50, STAT5 activation of CTLL-2 cells",Binder
1,51.4 nM,B7
2,9.6 nM,B8

# Target: T3, IL-2Rα (recombinant IL-2 receptor α, …)
# Assay: SPR (Biacore), C1 or CM5 chip, biotinylated receptor on neutravidin
# Description: (§1) Data for binding of Fc-IL-2 variant fusion proteins to IL-2Rα, IL-2Rβ and IL-2Rβγ heterodimer were collected on a Biacore platform using either C1 or CM5 chips. Neutravidin was immobilized using standard amine coupling methods and used to capture biotinylated receptors. Commercially sourced IL-2Rα (R&D Systems Cat #: 223-2A/CF) and IL-2Rβ receptors (R&D Systems Cat #:224-2B-025/CF) were biotinylated using sulfo-NHS-LC-LC-Biotin, desalted, and then captured on the neutravidin surfaces. […] Distinct purification tags were appended to the C-terminus of each chain. A FLAG epitope tag ([…]; SEQ ID NO: 257) was added at the C-terminus of IL-2Rβ subunit, followed by C-terminal Hiss tag ([…]; SEQ ID NO: 258). An AviTag™ ([…]; SEQ ID NO: 259) motif on the IL-2Rγ subunit allowed for site-specific biotinylation of the heterodimer.
# (§2) Fc IL 2 fusion protein variants, Fc protein, and Proleukin were injected at various concentrations over these surfaces. Kinetic data obtained from these injections was used to extract kₒₙ and koff to calculate KD (KD=koff/kₒₙ). Experiments were run at 25° C. in HBS-EP+ running buffer (10 mM HEPES, 150 mM NaCl, 3 mM EDTA, 0.05% Tween20, pH 7.4 with 0.1 mg/ml BSA). Data shown in Table 5 for Fc IL-2 fusion protein variants binding to the indicated IL-2R surfaces were derived from the global fitting of data obtained from 2-5 independent surfaces.
Kd,fold larger effect on reducing IL-2Rα affinity against R38A (heterodimer 82.46),Binder
685 nM,6 fold,B1
419 nM,–,B2
29 nM,–,B3
2400 nM,–,B4
2000 nM,–,B5
269 nM,–,B6

# Target: T4, IL-2Rβ (recombinant IL-2 receptor β, …)
# Assay: as above
# Description: as §1, §2
row,Kd,Binder
1,7000 nM,B1
2,8800 nM,B2
3,7300 nM,B3
4,8100 nM,B4
5,7100 nM,B5
6,7000 nM,B6

# Target: T5, IL-2Rβγ heterodimer, custom biotinylated Fc fusion protein (human IL-2Rβ 27-240-Fc-FLAG / human IL-2Rγ … (human, site-specific biotinylation at the AviTag))
# T5 construct: Extracellular regions fused to IgG1 knob-in-hole Fc subunits with tags; also called IL-2 receptor βγ heterodimer; Fc-IL-2Rβγ
# Assay: as above
# Description: as §1, §2
# T5 sequence (chain, as listed by the source limits assumed): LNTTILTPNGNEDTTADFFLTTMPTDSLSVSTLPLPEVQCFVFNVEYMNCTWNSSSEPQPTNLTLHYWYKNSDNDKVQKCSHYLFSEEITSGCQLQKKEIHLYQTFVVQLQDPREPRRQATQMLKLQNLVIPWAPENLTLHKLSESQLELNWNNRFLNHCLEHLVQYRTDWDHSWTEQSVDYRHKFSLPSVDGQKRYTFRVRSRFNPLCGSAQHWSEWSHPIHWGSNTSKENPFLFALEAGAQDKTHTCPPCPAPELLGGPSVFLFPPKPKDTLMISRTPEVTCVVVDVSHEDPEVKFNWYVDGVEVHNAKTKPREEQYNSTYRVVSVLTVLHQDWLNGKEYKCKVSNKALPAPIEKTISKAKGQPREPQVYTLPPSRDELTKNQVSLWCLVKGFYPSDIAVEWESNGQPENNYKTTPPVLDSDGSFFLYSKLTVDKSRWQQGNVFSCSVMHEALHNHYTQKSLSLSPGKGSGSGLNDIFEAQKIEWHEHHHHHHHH
row,Kd,Binder
1,0.071 nM,B1
2,0.065 nM,B2
3,0.15 nM,B3
4,0.152 nM,B4
5,0.094 nM,B5
6,0.016 nM,B6

# From patent US20240269235A1 (Gilead, published 2024)
